# Data: publication doi:10.1101/2021.07.05.451109 (bioRxiv, 2021)
# B1: 24Leu-CXCL17 (ligand)
# chain: LNPGVARGHRDRGQASRRWLQEGGQECECKDWFLRAPRRKFMTVSGLPKKQCPCDHFKGNVKKTRHQRHHRKPNKHSRACQQFLKQCQLRSFALPL
# How the values were obtained:
# [1] = molecular target: NLuc/CXCR4 (genome-edited, HeLa cells) (human (endogenous in HeLa), UniProt P61073 1-352); assay: FRET or BRET
# [2] = molecular target: NLuc/CXCR4 (genome-edited, HEK293 cells) (human (endogenous in HEK293), UniProt P61073 1-352); assay: FRET or BRET
# Chain of NLuc/CXCR4 (genome-edited, HEK293 cells) (P61073 whole entry): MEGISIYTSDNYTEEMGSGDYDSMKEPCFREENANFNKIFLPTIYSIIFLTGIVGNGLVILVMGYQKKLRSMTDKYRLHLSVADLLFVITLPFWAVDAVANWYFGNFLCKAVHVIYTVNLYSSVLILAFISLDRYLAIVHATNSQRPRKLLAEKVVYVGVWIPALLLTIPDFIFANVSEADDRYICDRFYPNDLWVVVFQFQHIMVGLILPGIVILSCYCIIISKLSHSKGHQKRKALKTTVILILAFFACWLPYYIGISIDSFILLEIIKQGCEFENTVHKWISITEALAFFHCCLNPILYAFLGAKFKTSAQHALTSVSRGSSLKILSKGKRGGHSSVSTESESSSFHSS
# Chain of NLuc/CXCR4 (genome-edited, HeLa cells) (P61073 whole entry): as above
binder,measurement,setting,value
B1,pKi,[1],6.15 ± 0.27
same,pKi,[2],6.14 ± 0.3
